Biological target: T1, CS (Sus scrofa, UniProt P00889)
T1 sequence (P00889 28-464): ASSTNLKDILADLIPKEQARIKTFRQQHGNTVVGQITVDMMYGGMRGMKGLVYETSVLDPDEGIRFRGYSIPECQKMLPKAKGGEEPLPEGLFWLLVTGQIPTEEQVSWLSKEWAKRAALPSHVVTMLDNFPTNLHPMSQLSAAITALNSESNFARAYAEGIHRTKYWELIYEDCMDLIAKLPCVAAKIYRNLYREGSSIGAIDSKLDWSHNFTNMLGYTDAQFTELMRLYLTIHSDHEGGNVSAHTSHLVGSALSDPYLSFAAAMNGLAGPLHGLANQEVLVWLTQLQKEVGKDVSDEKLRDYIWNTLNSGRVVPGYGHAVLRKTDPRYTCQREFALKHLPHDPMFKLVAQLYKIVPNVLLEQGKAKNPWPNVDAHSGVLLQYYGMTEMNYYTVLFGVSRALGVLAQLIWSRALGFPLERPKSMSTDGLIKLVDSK
Test: Chaperone assay, thermal aggregation of CS at 50° C.
Type: biochemical
Details: 10:1 molar ratio of peptide:CS, sixty minutes, 340 nm
Procedure: The chaperone activity of the peptides was measured as their ability to protect against the thermal aggregation of three chaperone target proteins βH crystallin, ADH and CS in chaperone assays performed at 50° C. (FIG. 19). A non-interactive αB crystallin sequence 111HGKHEERQDE120 was used as the negative control in the chaperone assays (FIG. 19). Based on near and far UVCD, the three target proteins unfolded in the order: CS>>>ADH>>βH crystallin when they were heated at 50° C. for sixty minutes (FIGS. 15 and 16). The thermal aggregation of βH crystallin, ADH and CS was measured as light scattering at λ=340 nm in the presence and absence of each peptide. The chaperone activity of each peptide was calculated as percent protection in which the aggregation of each target protein in the absence of any peptides was set at 0% protection (FIG. 19). The interactive peptides […] and 131LTITSSLSDGV141 were effective inhibitors of aggregation of all three chaperone target proteins.
A (top left): thermal aggregation of chaperone target proteins βH crystallin, ADH and CS in the absence of peptides was measured as light scattering at λ=340 nm. […] The chaperone activity of each peptide was calculated as percent protection in which the aggregation of each target protein in the absence of any peptides was set at 0% protection. […]

HGKHEERQDE
percent protection against thermal aggregation of CS: partial protection

Source: patent US20070185028A1, “Compositions and methods for treatment of protein misfolding and protein aggregation diseases” (priority 2004, published 2007)
